Substrate in data set [1]: OC[C@H]1OC(O)[C@H](O)[C@@H](O)[C@@H]1O
Put plainly: purified protein, by the assay type. The settings on record: other: apparent, wt, DCIP assay, pH 5.5, 30° C.

Substrate in data set [2]: OC[C@H]1O[C@H](O[C@H]2[C@H](O)[C@@H](O)C(O)O[C@@H]2CO)[C@H](O)[C@@H](O)[C@@H]1O
Put plainly: purified protein, by the assay type. The settings on record: other: apparent, wt, DCIP assay, pH 5.5, 30° C.

B1: Corynascus thermophilus cellobiose dehydrogenase (CDH), recombinant wild type, SEQ ID NO: 7 (Thermothelomyces fergusii) (protein)
chain: QMTEGTYTHEATGITFKTWTPSDGSTFTFGLALPGDALTNDATEYIGLLRCQITDPSSPGYCGISHGQSGQMTQALLLVAWASEDVVYTSFRYATGYTLPELYTGDAKLTQIASSVSGDSFEVLFRCENCFSWDQNGATGSVSTSNGALVLGYAASKSGLTGATCPDTAEFGFHNNGFGQWGAVLEGATSDSYEEWAQLATITPPTTCDGNGPGDKVCVPAPEDTYDYIVVGAGAGGITVADKLSEAGHKVLLIEKGPPSTGLWNGTMKPEWLEGTDLTRFDVPGLCNQIWVDSAGIACTDTDQMAGCVLGGGTAVNAGLWWKPHPADWDDNFPHGWKSSDLADATERVFSRIPGTWHPSQDGKLYRQEGFEVISQGLANAGWREVDANQEPSEKNRTYSHSVFMFSGGERGGPLATYLASAAQRSNFNLWVNTSVRRAIRTGPRVSGVELECLADGGFNGTVNLKEGGGVIFSAGAFGSAKLLLRSGIGPEDQLEIVASSKDGETFISKNDWIKLPVGHNLIDHLNTDLIITHPDVVFYDFYAAWDNPITEDKEAYLNSRSGILAQAAPNIGPLMWEEVTPSDGITRQFQWTCRVEGDSSKTNSTHAMTLSQYLGRGVVSRGRMGITSGLTTTVAEHPYLHNDGDLEAVIQGIQNVVDALSQVPDLEWVLPPPNTTVEEYVNSLIVSPANRRANHWMGTAKMGLDDGRSGGSAVVDLNTKVYGTDNLFVVDASIFPGMSTGNPSAMIVIVAEQAAQRILSLRY
Turning to B1, in data set [1], the Michaelis-Menten constant (Km) came to 86.7 mM. Also, in data set [2], the Km amounted to 4.08 mM, the kcat was 0.50 s⁻¹ and the kcat/Km is 120 M⁻¹ s⁻¹.

The values above are taken from patent US10184115B2, “Mutated cellobiose dehydrogenase with increased substrate specificity” (DIRECTSENS GMBH, priority 2012, dated 2019).
